Reference: patent publication US20250019737A1

Experiments:
[1] = target: nDHFR-linker 1-His6-Ub (pND-Ub) (mouse) (UniProt P00375)
[2] = target: nDHFR-linker 1-His6-Ub (pND-Ub) (mouse) (UniProt P00375); experiment: cell-based or functional assay

Sequence of vWA (P00375 whole entry): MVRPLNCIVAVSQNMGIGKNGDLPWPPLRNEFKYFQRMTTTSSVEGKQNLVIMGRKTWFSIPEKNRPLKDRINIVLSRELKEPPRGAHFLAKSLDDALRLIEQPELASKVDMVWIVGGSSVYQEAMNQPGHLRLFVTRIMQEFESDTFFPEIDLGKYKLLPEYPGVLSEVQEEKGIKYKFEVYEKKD
Sequence of vWA T173,175R (P00375 whole entry): as above
Sequence of vWA Q149A (P00375 whole entry, stated change not applied): as the sequence (P00375 whole entry) above
Sequence of vWA Q149R (P00375 whole entry, stated change not applied): as the sequence (P00375 whole entry) above

| Growth efficiency (max growth density divided by the time of half max growth); number matched to the legend entry by its order in the column and its grey tone [1] | bacterial growth on trimethoprim, split DHFR, incomplete ubiquitination cascade (ΔE1, ΔE2) [2] [µg/mL] | Substance |
| --- | --- | --- |
| 516 | – | vWA Q149R (from UniProt P00375) |
| 1230 | – | vWA (from UniProt P00375) |

The next lines start with the substance.

| Substance | Growth efficiency (max growth density divided by the time of half max growth); number matched to the legend entry by its order in the column and its grey tone [1] | bacterial growth on trimethoprim, split DHFR, incomplete ubiquitination cascade (ΔE1, ΔE2) [2] [µg/mL] |
| --- | --- | --- |
| cDHFR-Vps9 (pCD-Sub) (from UniProt P00375 109-187; P54787 1-451) | – | 0.1 |
| vWA Q149A (from UniProt P00375) | 715 | – |
| vWA T173,175R (from UniProt P00375) | 62 | – |
